This passage reports IRF7/6D-induced IFN-β promoter luciferase activity in HEK293T; gD-EYFP and Viperin-Flag together against gD or viperin alone results from publication PMC6917645.

The assay concerns the target Viperin-Flag (UniProt Q8WXG1).
UniProt Q8WXG1, sequence (Q8WXG1 whole entry): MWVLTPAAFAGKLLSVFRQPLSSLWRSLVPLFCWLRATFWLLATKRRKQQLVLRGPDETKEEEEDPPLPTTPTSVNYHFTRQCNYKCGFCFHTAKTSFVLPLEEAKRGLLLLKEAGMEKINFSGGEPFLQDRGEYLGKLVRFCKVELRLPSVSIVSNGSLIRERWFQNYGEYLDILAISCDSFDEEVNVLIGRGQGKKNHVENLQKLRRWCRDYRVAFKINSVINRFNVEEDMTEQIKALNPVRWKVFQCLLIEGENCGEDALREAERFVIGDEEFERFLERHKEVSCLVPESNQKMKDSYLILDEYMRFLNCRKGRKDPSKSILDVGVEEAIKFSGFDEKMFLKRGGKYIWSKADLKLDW

“gD-EYFP (from UniProt Q69091 26-394) (natural protein)” showed an IRF7/6D-induced IFN-β promoter luciferase activity in HEK293T; gD-EYFP and Viperin-Flag together against gD or viperin alone of 2 fold.
